Test results from patent US20170247476A1 (Amgen, published 2017).

Columns and labels:
human CD3ε = target: T1, human CD3ε (human, UniProt P07766 22-207); assay: FACS on T cells
T1 construct: On T cells CD3ε is part of the TCR-CD3 complex; also called T cells

HER2 = HER2 (human, UniProt P04626 23-1255); assay: cell-based or functional assay

binding result (human CD3ε)	EC50 Cytolysis (ng/mL), +MMP2; TDCC of SKOV-3 cells with pan T cells (HER2) [ng/mL]	EC50 Cytolysis (ng/mL), -MMP2; TDCC of SKOV-3 cells with pan T cells (HER2) [ng/mL]	Binder
no binding			CD3ε(1-27)-MMP-2cs-aCD3-aHER2-BiFc (bispecific antibody, Tested undigested, with the MMP2 cleavage site intact; also called CD3ε(1-27)-MMP-cs-aCD3-aHER2-BiFc) chain 1: not shown chain 2: QDGNEEMGGITQTPYKVSISGTTVILTGPLGIAGQAAAEPKSSDKTHTCPPCPAPEAAGGPSVFLFPPKPKDTLMISRTPEVTCVVVDVSHEDPEVKFNWYVDGVEVHNAKTKPREEQYNSTYRVVSVLTVLHQDWLNGKEYKCKVSNKALPAPIEKTISKAKGQPREPQVYTLPPSREEMTKNQVSLTCLVKGFYPSDIAVEWESNGQPENNYDTTPPVLDSDGSFFLYSDLTVDKSRWQQGNVFSCSVMHEALHNHYTQKSLSLSPGK
no binding			CD3ε(1-27)-aCD3-aHER2-BiFc (bispecific antibody, Non-cleavable linker between the CD3ε(1-27) fragment and the Fc) chain 1: not shown chain 2: QDGNEEMGGITQTPYKVSISGTTVILTGGGGSGGGGSGGGGSAAAEPKSSDKTHTCPPCPAPEAAGGPSVFLFPPKPKDTLMISRTPEVTCVVVDVSHEDPEVKFNWYVDGVEVHNAKTKPREEQYNSTYRVVSVLTVLHQDWLNGKEYKCKVSNKALPAPIEKTISKAKGQPREPQVYTLPPSREEMTKNQVSLTCLVKGFYPSDIAVEWESNGQPENNYDTTPPVLDSDGSFFLYSDLTVDKSRWQQGNVFSCSVMHEALHNHYTQKSLSLSPGK
	0.347		CD3ε(1-27)-MMP-2csV1-aCD3-aHER2-Xbody, digested with MMP-2 (bispecific antibody) chain 1: not shown chain 2: IAGQEVQLVESGGGLVQPGGSLKLSCAASGFTFNSYAMNWVRQAPGKGLEWVARIRSKYNNYATYYADSVKGRFTISRDDSKNTAYLQMNNLKTEDTAVYYCVRHGNFGNSYVSWWAYWGQGTLVTVSSGGGGSGGGGSELVMTQTPSSLSASLGDRVTISCRASQDISNYLNWYQQKPDGTVKLLIYYTSRLHSGVPSRFSGSGSGTDYSLTISNLEQEDIATYFCQQGNTLPLTFGAGTKLEIKASTKGPSVFPLAPCSRSTSESTAALGCLVKDYFPEPVTVSWNSGALTSGVHTFPAVLQSSGLYSLSSVVTVPSSNFGTQTYTCNVDHKPSNTKVDKTVGGGGSAAAEPKSSDKTHTCPPCPAPEAAGGPSVFLFPPKPKDTLMISRTPEVTCVVVDVSHEDPEVKFNWYVDGVEVHNAKTKPREEQYNSTYRVVSVLTVLHQDWLNGKEYKCKVSNKALPAPIEKTISKAKGQPREPQVYTLPPSREEMTKNQVSLTCLVKGFYPSDIAVEWESNGQPENNYDTTPPVLDSDGSFFLYSDLTVDKSRWQQGNVFSCSVMHEALHNHYTQKSLSLSPGK
		4.41	CD3ε(1-27)-MMP-2csV1-aCD3-aHER2-Xbody (bispecific antibody) chain 1: not shown chain 2: QDGNEEMGGITQTPYKVSISGTTVILTGGGGSGGGGSGGGGSGPLGIAGQEVQLVESGGGLVQPGGSLKLSCAASGFTFNSYAMNWVRQAPGKGLEWVARIRSKYNNYATYYADSVKGRFTISRDDSKNTAYLQMNNLKTEDTAVYYCVRHGNFGNSYVSWWAYWGQGTLVTVSSGGGGSGGGGSELVMTQTPSSLSASLGDRVTISCRASQDISNYLNWYQQKPDGTVKLLIYYTSRLHSGVPSRFSGSGSGTDYSLTISNLEQEDIATYFCQQGNTLPLTFGAGTKLEIKASTKGPSVFPLAPCSRSTSESTAALGCLVKDYFPEPVTVSWNSGALTSGVHTFPAVLQSSGLYSLSSVVTVPSSNFGTQTYTCNVDHKPSNTKVDKTVGGGGSAAAEPKSSDKTHTCPPCPAPEAAGGPSVFLFPPKPKDTLMISRTPEVTCVVVDVSHEDPEVKFNWYVDGVEVHNAKTKPREEQYNSTYRVVSVLTVLHQDWLNGKEYKCKVSNKALPAPIEKTISKAKGQPREPQVYTLPPSREEMTKNQVSLTCLVKGFYPSDIAVEWESNGQPENNYDTTPPVLDSDGSFFLYSDLTVDKSRWQQGNVFSCSVMHEALHNHYTQKSLSLSPGK
	0.332	0.276	CD3ε(1-27)-FURINcsV1-aCD3-aHER2-Xbody (bispecific antibody) chain 1: not shown chain 2: QDGNEEMGGITQTPYKVSISGTTVILTGGGGSGGGGSGGGGSRRRRREVQLVESGGGLVQPGGSLKLSCAASGFTFNSYAMNWVRQAPGKGLEWVARIRSKYNNYATYYADSVKGRFTISRDDSKNTAYLQMNNLKTEDTAVYYCVRHGNFGNSYVSWWAYWGQGTLVTVSSGGGGSGGGGSELVMTQTPSSLSASLGDRVTISCRASQDISNYLNWYQQKPDGTVKLLIYYTSRLHSGVPSRFSGSGSGTDYSLTISNLEQEDIATYFCQQGNTLPLTFGAGTKLEIKASTKGPSVFPLAPCSRSTSESTAALGCLVKDYFPEPVTVSWNSGALTSGVHTFPAVLQSSGLYSLSSVVTVPSSNFGTQTYTCNVDHKPSNTKVDKTVGGGGSAAAEPKSSDKTHTCPPCPAPEAAGGPSVFLFPPKPKDTLMISRTPEVTCVVVDVSHEDPEVKFNWYVDGVEVHNAKTKPREEQYNSTYRVVSVLTVLHQDWLNGKEYKCKVSNKALPAPIEKTISKAKGQPREPQVYTLPPSREEMTKNQVSLTCLVKGFYPSDIAVEWESNGQPENNYDTTPPVLDSDGSFFLYSDLTVDKSRWQQGNVFSCSVMHEALHNHYTQKSLSLSPGK
	0.256	0.112	CD3ε(1-27)-FURINcsV2-aCD3-aHER2-Xbody (bispecific antibody) chain 1: not shown chain 2: QDGNEEMGGITQTPYKVSISGTTVILTGGGGSGGGGSGGGGSGQSSRHRRALEVQLVESGGGLVQPGGSLKLSCAASGFTFNSYAMNWVRQAPGKGLEWVARIRSKYNNYATYYADSVKGRFTISRDDSKNTAYLQMNNLKTEDTAVYYCVRHGNFGNSYVSWWAYWGQGTLVTVSSGGGGSGGGGSELVMTQTPSSLSASLGDRVTISCRASQDISNYLNWYQQKPDGTVKLLIYYTSRLHSGVPSRFSGSGSGTDYSLTISNLEQEDIATYFCQQGNTLPLTFGAGTKLEIKASTKGPSVFPLAPCSRSTSESTAALGCLVKDYFPEPVTVSWNSGALTSGVHTFPAVLQSSGLYSLSSVVTVPSSNFGTQTYTCNVDHKPSNTKVDKTVGGGGSAAAEPKSSDKTHTCPPCPAPEAAGGPSVFLFPPKPKDTLMISRTPEVTCVVVDVSHEDPEVKFNWYVDGVEVHNAKTKPREEQYNSTYRVVSVLTVLHQDWLNGKEYKCKVSNKALPAPIEKTISKAKGQPREPQVYTLPPSREEMTKNQVSLTCLVKGFYPSDIAVEWESNGQPENNYDTTPPVLDSDGSFFLYSDLTVDKSRWQQGNVFSCSVMHEALHNHYTQKSLSLSPGK
